How the values were obtained:
Experiment in all cases: cell_activity; endogenous locus, 293H
[1] = target: T1, SCOH-SH41-b11-C (artificial)
T1 chain: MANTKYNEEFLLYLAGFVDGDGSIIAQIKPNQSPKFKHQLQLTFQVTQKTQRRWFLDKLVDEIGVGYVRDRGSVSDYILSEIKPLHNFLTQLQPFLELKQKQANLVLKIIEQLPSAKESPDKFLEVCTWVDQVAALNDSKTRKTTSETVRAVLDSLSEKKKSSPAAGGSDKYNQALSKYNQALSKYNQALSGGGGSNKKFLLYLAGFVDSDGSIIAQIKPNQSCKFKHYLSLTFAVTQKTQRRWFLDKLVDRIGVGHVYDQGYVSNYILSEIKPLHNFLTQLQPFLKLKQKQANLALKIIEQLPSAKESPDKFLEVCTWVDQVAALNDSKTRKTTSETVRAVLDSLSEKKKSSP
Description: (§1) Human embryonic kidney 293H cells (Invitrogen) were plated at a density of 1×10⁶ cells per 10 cm dish in complete medium (DMEM supplemented with 2 mM L-glutamine, penicillin (100 UI/ml), streptomycin (100 μg/ml), amphotericin B (Fongizone) (0.25 μg/ml) (Invitrogen-Life Science) and 10% FBS). The next day, cells were transfected with 3 μg of single-chain meganuclease expression vector using Lipofectamine 2000 transfection reagent (Invitrogen) according to the supplier's protocol. After 2 to 6 days of incubation at 37° C., cells were trypsinized and genomic DNA extraction was performed with the DNeasy blood and tissue kit (Qiagen) according to the supplier's protocol.
(§2) Human embryonic kidney 293H cells were transfected with a plasmid expressing a single-chain safe harbor meganuclease. After 2 to 6 days of incubation at 37° C., genomic DNA was isolated and PCR was used to amplify the genomic sequence surrounding the meganuclease target site. Sequences were then analyzed for the presence of insertions or deletions events (InDel) in the cleavage site of each safe harbor target.

[2] = target: T2, SCOH-SH4-b1-C (artificial)
T2 chain: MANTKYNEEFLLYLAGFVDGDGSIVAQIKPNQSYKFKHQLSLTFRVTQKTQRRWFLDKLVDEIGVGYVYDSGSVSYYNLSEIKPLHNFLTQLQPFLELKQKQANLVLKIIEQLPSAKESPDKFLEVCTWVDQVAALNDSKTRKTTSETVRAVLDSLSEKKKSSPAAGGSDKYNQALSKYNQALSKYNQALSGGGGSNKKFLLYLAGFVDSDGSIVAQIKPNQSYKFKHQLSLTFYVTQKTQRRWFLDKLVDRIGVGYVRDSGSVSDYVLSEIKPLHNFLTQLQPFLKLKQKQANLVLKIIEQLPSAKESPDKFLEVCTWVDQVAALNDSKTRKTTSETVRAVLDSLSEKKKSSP
Description: as §1, §2

[3] = target: T3, SCOH-SH52-b12-C (artificial)
T3 chain: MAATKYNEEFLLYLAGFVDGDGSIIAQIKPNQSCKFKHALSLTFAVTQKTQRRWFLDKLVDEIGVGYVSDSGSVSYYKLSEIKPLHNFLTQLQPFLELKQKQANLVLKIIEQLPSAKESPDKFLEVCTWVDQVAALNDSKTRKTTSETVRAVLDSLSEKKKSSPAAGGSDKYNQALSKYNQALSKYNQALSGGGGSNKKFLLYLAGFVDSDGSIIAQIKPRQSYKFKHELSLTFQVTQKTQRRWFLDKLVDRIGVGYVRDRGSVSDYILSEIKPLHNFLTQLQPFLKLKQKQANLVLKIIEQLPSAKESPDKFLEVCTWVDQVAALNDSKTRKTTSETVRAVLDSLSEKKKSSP
Description: as §1, §2

[4] = target: T4, SCOH-SH42-b11-C (artificial)
T4 chain: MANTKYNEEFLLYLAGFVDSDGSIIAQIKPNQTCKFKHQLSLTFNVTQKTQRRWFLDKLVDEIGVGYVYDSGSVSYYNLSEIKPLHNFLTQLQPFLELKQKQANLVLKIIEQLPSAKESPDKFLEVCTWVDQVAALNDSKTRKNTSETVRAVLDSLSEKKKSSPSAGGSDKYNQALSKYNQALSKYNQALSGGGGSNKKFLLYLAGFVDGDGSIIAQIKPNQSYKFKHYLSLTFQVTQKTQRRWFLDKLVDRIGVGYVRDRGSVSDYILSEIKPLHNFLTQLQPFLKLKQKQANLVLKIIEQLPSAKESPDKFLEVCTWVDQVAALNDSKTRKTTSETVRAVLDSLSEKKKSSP
Description: as §1, §2

[5] = target: T5, SCOH-SH31.2 (artificial)
T5 chain: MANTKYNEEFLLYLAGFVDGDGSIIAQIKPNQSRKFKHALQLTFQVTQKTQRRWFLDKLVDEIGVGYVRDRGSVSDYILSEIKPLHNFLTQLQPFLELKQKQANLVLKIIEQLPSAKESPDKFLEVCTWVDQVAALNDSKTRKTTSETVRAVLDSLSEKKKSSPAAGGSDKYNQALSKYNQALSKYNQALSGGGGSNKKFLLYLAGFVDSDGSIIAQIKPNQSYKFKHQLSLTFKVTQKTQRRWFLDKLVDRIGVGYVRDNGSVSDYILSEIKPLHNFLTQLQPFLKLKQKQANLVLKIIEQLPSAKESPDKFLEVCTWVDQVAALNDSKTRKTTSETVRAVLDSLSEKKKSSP
Description: as §1, §2

[6] = target: T6, SCOH-SH39-b11-C (artificial)
T6 chain: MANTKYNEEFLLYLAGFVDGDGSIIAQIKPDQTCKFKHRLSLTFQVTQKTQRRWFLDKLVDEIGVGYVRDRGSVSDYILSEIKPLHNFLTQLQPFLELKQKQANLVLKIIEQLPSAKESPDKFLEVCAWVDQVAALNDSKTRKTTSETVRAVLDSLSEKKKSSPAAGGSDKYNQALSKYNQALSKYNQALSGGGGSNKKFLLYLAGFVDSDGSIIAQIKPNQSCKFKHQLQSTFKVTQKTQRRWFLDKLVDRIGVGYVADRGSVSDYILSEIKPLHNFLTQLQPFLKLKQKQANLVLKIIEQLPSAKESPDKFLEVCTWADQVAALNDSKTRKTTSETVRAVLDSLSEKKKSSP
Description: as §1, §2

[7] = target: T7, SCOH-SH44-b11-C (artificial)
T7 chain: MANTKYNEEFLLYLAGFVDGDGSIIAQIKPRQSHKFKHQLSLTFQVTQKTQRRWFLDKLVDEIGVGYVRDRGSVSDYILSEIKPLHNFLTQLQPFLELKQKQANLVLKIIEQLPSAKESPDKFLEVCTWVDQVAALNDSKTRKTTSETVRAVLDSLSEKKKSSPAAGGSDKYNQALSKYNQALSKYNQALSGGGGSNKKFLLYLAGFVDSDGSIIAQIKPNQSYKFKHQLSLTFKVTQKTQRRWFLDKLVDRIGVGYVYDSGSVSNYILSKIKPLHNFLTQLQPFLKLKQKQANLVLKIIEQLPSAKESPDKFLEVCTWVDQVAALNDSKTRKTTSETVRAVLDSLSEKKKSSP
Description: as §1, §2

[8] = target: T8, SCOH-SH19 (artificial)
T8 chain: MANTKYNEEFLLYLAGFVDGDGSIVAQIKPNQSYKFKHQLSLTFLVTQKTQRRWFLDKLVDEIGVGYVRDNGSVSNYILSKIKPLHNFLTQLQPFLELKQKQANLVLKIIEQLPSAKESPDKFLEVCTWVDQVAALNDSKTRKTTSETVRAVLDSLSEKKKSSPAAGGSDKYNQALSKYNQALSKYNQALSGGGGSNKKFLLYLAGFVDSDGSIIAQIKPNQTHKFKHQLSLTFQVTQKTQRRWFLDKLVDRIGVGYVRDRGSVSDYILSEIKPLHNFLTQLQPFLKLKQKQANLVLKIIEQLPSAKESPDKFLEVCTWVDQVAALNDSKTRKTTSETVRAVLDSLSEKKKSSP
Description: as §1, §2

[9] = target: T9, SCOH-SH43-b12-C (artificial)
T9 chain: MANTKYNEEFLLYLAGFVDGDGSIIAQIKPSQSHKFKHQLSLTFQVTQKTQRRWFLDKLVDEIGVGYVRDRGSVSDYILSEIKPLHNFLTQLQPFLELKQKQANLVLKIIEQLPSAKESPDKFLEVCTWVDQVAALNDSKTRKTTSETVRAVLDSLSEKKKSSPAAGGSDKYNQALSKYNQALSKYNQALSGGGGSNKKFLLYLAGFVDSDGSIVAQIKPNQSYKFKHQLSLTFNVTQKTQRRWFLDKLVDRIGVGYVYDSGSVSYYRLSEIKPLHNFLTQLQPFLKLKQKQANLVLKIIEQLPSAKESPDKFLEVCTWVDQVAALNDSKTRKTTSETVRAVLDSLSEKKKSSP
Description: as §1, §2

[10] = target: T10, SCOH-SH3-b1-C (artificial)
T10 chain: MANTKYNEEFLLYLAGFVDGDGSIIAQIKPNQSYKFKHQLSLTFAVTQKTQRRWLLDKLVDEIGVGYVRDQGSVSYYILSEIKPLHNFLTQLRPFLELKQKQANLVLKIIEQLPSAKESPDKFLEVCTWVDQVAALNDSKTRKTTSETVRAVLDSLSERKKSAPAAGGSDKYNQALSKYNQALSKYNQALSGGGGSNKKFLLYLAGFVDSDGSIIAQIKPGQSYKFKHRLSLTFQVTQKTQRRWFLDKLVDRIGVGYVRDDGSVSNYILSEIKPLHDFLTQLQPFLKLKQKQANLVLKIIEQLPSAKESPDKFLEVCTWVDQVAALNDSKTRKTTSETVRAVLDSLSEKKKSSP
Description: as §1, §2

B1: SH41 target (dsDNA)
DNA 1: CCTCTCTTAGGTGAGACGGTACAT
DNA 2: ATGTACCGTCTCACCTAAGAGAGG
For B1, the activity [1] was 0.4 % InDels.

B2: SH4 target (dsDNA)
DNA 1: TTAAAACACTGTACACCATTTTGA
DNA 2: TCAAAATGGTGTACAGTGTTTTAA
Work on B2 yielded an activity [2] of 0.2 % InDels.

B3: SH52 target (dsDNA)
DNA 1: CTCCACTGTCTTACCTAATCCAGC
DNA 2: GCTGGATTAGGTAAGACAGTGGAG
With B3 the activity [3] was 3.2 % InDels.

B4: SH42 target (dsDNA)
DNA 1: TATATCCCATGTGAGACATGCAGT
DNA 2: ACTGCATGTCTCACATGGGATATA
B4 was tested, and the activity [4] was 0.7 % InDels.

B5: SH31 target (dsDNA)
DNA 1: TTGTAATGTCTTACAAGGTTTTAA
DNA 2: TTAAAACCTTGTAAGACATTACAA
Work on B5 yielded an activity [5] of 5 % InDels.

B6: SH39 target (dsDNA)
DNA 1: TCCTTCTGTCTTAAGAGATTTATC
DNA 2: GATAAATCTCTTAAGACAGAAGGA
Binder B6 has an activity [6] of 1.5 % InDels.

B7: SH44 target (dsDNA)
DNA 1: AAGAAATGTCTCACAGAATTTTAC
DNA 2: GTAAAATTCTGTGAGACATTTCTT
B7 gave an activity [7] of 3.6 % InDels.

B8: SH19 target (dsDNA)
DNA 1: GCAAAACATTGTAAGACATGCCAA
DNA 2: TTGGCATGTCTTACAATGTTTTGC
Work on B8 yielded an activity [8] of 0.9 % InDels.

B9: SH43 target (dsDNA)
DNA 1: TAAATACGTCTTACATTATTTTGC
DNA 2: GCAAAATAATGTAAGACGTATTTA
With B9 the activity [9] was 0.4 % InDels.

B10: SH3 target (dsDNA)
DNA 1: CCAATACAAGGTACAAAGTCCTGA
DNA 2: TCAGGACTTTGTACCTTGTATTGG
B10 showed an activity [10] of 0.8 % InDels.
